± gives the standard deviation of the averaged measurements.
These sequences were tested on ATP (assay: switch fluorescence ratio, 500 uM ATP over buffer (Cy3 cluster intensity, sum of 5 cycles each) (fold (ratio)); higher = stronger signal-on switching upon ATP binding; sequences stand for … in TCGTCGGCAGCGTCAGATGTGTATAAGAGACAGTTTTTTTTTTTTTTTTTTTTTTTTT…TC). Conditions: aptamer strand: ATP DNA aptamer (quencher-CACCTGGGGGAGTATTGCGGAGGAAGG + anchor), 100 nM annealed; ATP concentration: 500 uM.
How it was run: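 Cy3-labelled switching-strand clusters on a modified Illumina MiSeq flow-cell were annealed to 100 nM quencher-labelled ATP aptamer, imaged in selection buffer, then imaged after 15 min with 500 uM ATP at 22 °C. Five buffer/ATP cycles ran, with NaOH stripping and re-annealing between them. The fluorescence ratio is summed target-cycle over summed buffer-cycle Cy3 intensity per cluster, averaged per switch-domain sequence. Clusters outside 100-1000 RFU were excluded.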
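Note: ATP exposure 15 min at 22 °C before imaging.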

Point of comparison: TTTCTCGAAT, switch fluorescence ratio 1 ± 0.029. Against it:
- CGCGTCAGCC — within error, 0.979 ± 0.073
- GCTGTCGTTA — within error, 1.015 ± 0.01
- TTGCTTTTCG — within error, 0.974 ± 0.015
- TAAAACCCTT — within error, 1.04 ± 0.076
- GTTGTAAAGA — within error, 0.98 ± 0.019
- CCGTGTAGGG — within error, 1.01 ± 0.034
- GCGGGATTCG — within error, 0.998 ± 0.059
- TGGTCAGGGT — within error, 0.9735 ± 0.0097
- TCTGACAATC — higher, 1.91 ± 0.24
- TTTTTGAATT — the same, 1 ± 0.034
- CACGGGGAAG — within error, 1.02 ± 0.047
- GTGATTTTGT — within error, 1.01 ± 0.032
- TTGGTTGGAG — within error, 0.996 ± 0.021
- TATTTATTGT — within error, 1.01 ± 0.008
- TCTGGGGAGG — the same, 1 ± 0.02
- ATCCTCTCGG — higher, 1.05 ± 0.017
- TGTTGTGGTG — the same, 1 ± 0.033
- TTTAAAAGAT — within error, 1.01 ± 0.035
- AGTTGATCCA — within error, 0.982 ± 0.015
- GCATAGGGAT — within error, 0.988 ± 0.022
- AATCCTGGCG — within error, 1.01 ± 0.032
- TTGTATGGTT — within error, 1.02 ± 0.019
- TTTGATGCAG — within error, 0.993 ± 0.032
- TACGGTGGTG — within error, 0.987 ± 0.018
- CAATGTCCCG — within error, 0.9985 ± 0.0041
- ACTTTATTCT — within error, 1.04 ± 0.02
- GACGGAACGG — within error, 1.04 ± 0.022
- TGAAATATTT — within error, 1.21 ± 0.21
- GCGTCTAATC — within error, 0.994 ± 0.011
- GGTTACGGC — within error, 1.07 ± 0.17
- TCTGTTTGTT — within error, 1.015 ± 0.01
- ATGATTAGTT — within error, 1.01 ± 0.046
- TCCGGCACGT — within error, 1.01 ± 0.019
- CCTGGGCGTC — higher, 1.037 ± 0.004
- ACGGTTTTAA — the same, 1 ± 0.03
- GGATTATTG — within error, 0.98 ± 0.032
- TAGAGGGGGT — within error, 0.998 ± 0.039
- TTGTATCAGG — the same, 1 ± 0.02
- TTCTCTGTAA — higher, 2.66 ± 1.6
- ATTGAGAAGT — within error, 0.996 ± 0.031
- GATCAGAGGT — the same, 1 ± 0.029
- GCGTTTTGAG — within error, 0.981 ± 0.025
- GACTTCGTGG — within error, 1.01 ± 0.056
- CCATTGTAAG — within error, 1.02 ± 0.05
- CGAAAGGTTG — lower, 0.939 ± 0.017
- GACAGTCGGG — within error, 1.01 ± 0.024
- CGAAGAAAGG — higher, 1.16 ± 0.013
- CGGATGAGGT — within error, 0.987 ± 0.052
- GGTTGGACCA — lower, 0.9602 ± 0.0032
- GGGTGTGGAC — within error, 1.04 ± 0.023
- TTTCGACCTG — within error, 0.9871 ± 0.0046
- GTTGTTGTGG — within error, 1.02 ± 0.034
- CTTTCTTTTT — within error, 0.992 ± 0.018
- AAATAGGGTA — within error, 0.993 ± 0.023
- CGATGCTAGT — higher, 1.07 ± 0.037
- TTTGTTCTGT — within error, 1.01 ± 0.018
- GGCCCTTCGG — within error, 0.9987 ± 0.0091
- ATATTAGTTA — within error, 0.997 ± 0.05
- TTTTGGGCGG — within error, 0.99 ± 0.022
- CGTTTTGGGT — within error, 1.01 ± 0.033
- ACTTGGTACT — within error, 1.02 ± 0.018
- GAGAGTGGGG — within error, 0.985 ± 0.037
- AATTAGTGTG — within error, 0.987 ± 0.022
- ATGAGAAGTG — within error, 0.969 ± 0.014
- GGGTTAGTAG — the same, 1 ± 0.017
- GCCAGAGATA — higher, 1.0422 ± 0.00051
- AGCCCGGAAA — within error, 1.023 ± 0.0038
- GAGGCGTACG — within error, 1.04 ± 0.021
- GCTGTGGTAC — higher, 1.188 ± 0.0086
- GGGGGTAAGG — within error, 0.987 ± 0.034
- CTGGGGGATG — within error, 0.9863 ± 0.0027
- CAGAGTAGGG — within error, 0.969 ± 0.049
- ATGGGACATT — within error, 1.03 ± 0.079
- TTTAGATGTG — the same, 1 ± 0.014
- ACTTAAGTTT — within error, 1.01 ± 0.07
- TATTTTGAAC — higher, 1.0289 ± 4.6e-05
- CGGCATGTCT — within error, 0.997 ± 0.076
- TTTCTCCCTT — higher, 1.19 ± 0.13
- TATAAGAGTG — within error, 1.03 ± 0.032
- TTTTGAGCCA — within error, 0.983 ± 0.032
- TCGTGTGACC — within error, 1.009 ± 0.0093
- CAAGGTCCAG — the same, 1 ± 0.041
- TGGAGAAATA — within error, 1.01 ± 0.048
- GCGTAGGGCC — within error, 1.03 ± 0.027
